The results in this text go back to patent US12465660B2, “Compositions and methods for cancer imaging and radiotherapy” (VECT-HORUS, priority 2017, dated 2025).

Positions of bridges follow the written chain, without caps; N, C: chain ends. Non-standard residues stand in square brackets, D forms with d. Primed or numbered codes have the meaning given here. No end group written: not given here. *: point of attachment. DOTA = O=C(O)CN1CCN(CC(=O)O)CCN(CC(=O)*)CCN(CC(=O)O)CC1; NODAGA′ = not defined here; PEG12′ = not defined here; βAla = NCCC(=O)O

Assay [1] addresses T1, Recombinant human LDLR (His-tagged) (Homo sapiens, UniProt P01130).
T1 construct: purchased Sino Biological (Beijing, China)
Description: SPR affinity of MG04/VH-DO35, CH44, FG770, CH40 and FG769 for LDLR (Biacore T200). It counts as binding. The settings on record: 25° C. As for the experimental part: (§1) Recombinant human LDLR (His-tagged) was purchased from Sino Biological (Beijing, China). Interaction of conjugates with LDLR was tested at 25° C. using a Biacore T200 (GE Healthcare) and 50 mM HEPES-NaOH pH7.4, 150 mM NaCl, 0.005% Tween-20, 50 μM EDTA as running buffer. hLDLR was immobilized on a NiHC sensor chip (Xantec, Dusseldorf, Germany) at a density of 35-60 fmol/mm^2. Binding of conjugates to LDLR-coated flow cells was corrected for non-specific binding to uncoated flow cells. The single-cycle kinetic method was used to measure the affinity of ligands with LDLR. Ligands were diluted in running buffer and injected sequentially 2 minutes at 30 μl/min using increasing concentrations. Blank run injections of running buffer were performed in the same conditions before ligand injection. Double-subtracted sensorgrams were globally fitted with the 1:1 Langmuir binding model from Biacore T200 Evaluation version 2.0.

Assay [2] has as its target T1, Recombinant human LDLR (His-tagged). As to the kind of experiment: SPR affinity of conjugates A, B, C and D for LDLR (Biacore T200). It counts as binding. The settings on record: 25° C. The method, then:
as §1
A general note: SPR reads the build-up and loss of mass on a sensor chip optically.

For the next assay, the system named is CHO-hLDLR-GFP cells. Description: Binding/endocytosis of fluorescent conjugates by LDLR expressing cells (confocal microscopy). It counts as cell-based, Chinese Hamster. The settings on record: live cells, 1 hour at 37° C. From the text: In these experiments, with regards to FIG. 2, the LDLR-GFP signal is visualized in column 2, the conjugate signal is either directly visualized in column 4 using the A680 fluorescence or in column 3 using an anti-hFc-A594 conjugated secondary antibody. Cell nuclei were stained in blue with Hoechst and its signal can be visualized in column 1. The co-labelling of LDLR-GFP and conjugates can be visualized as a highlight signal in column 5 on the merge image.

T1 sequence (P01130 22-860): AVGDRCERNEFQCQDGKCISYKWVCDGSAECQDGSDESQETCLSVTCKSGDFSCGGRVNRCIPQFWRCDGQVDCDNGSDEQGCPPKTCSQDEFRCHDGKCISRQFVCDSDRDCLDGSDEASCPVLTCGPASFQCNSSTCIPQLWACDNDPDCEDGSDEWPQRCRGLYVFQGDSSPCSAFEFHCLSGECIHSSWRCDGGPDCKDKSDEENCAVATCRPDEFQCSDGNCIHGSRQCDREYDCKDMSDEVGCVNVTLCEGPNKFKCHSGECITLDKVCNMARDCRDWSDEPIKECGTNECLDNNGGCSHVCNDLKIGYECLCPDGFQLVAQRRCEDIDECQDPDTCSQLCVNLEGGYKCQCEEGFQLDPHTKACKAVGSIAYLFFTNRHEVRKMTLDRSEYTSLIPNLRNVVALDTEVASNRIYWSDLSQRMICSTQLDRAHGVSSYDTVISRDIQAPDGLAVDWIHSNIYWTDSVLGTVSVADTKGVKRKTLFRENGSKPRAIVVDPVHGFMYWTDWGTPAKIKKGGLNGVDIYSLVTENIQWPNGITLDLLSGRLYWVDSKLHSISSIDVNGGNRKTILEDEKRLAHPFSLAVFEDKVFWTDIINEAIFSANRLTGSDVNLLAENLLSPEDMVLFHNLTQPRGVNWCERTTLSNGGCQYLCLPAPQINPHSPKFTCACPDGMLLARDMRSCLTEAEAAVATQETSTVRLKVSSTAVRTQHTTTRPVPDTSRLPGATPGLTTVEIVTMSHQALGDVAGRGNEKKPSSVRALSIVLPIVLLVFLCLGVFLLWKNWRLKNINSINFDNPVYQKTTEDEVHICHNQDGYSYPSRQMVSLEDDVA

Regarding “DOTA-βAla-PEG12-SEQ ID NO: 13-NH2 ({DOTA-βAla-PEG12′}-[dC]RPLGRMC-NH2; disulfide 1-8) [FG769, scrambled counterpart of FG770]”, the KD entry in assay [1] was “No Binding”. The same measure, in the same setting: for “NODAGA-βAla-PEG12-SEQ ID NO: 13-NH2 ({NODAGA′-βAla-PEG12′}-[dC]RPLGRMC-NH2; disulfide 1-8) [CH40, scrambled counterpart of CH44]” the value was “No Binding”. “Fc-Peptide D-A680 (CRMLGRPC; cysteine pairing not given here; also: fused to a dimerising Fc or GST) [Conjugate D, control]”: in assay [2], the KD result is listed as “No Binding”. In addition, in the assay on CHO-hLDLR-GFP cells, the “binding to and endocytosis by CHO-hLDLR-GFP cells” value is “are not”.
